Test results: publication PMC11965557 (Communications Biology, 2025)

B1: Varicella-Zoster virus ORF9 (VZV-ORF9) (natural protein)
chain: MASSDGDRLCRSNAVRRKTTPSYSGQYRTARRSVVVGPPDDSDDSLGYITTVGADSPSPVYADLYFEHKNTTPRVHQPNDSSGSEDDFEDIDEVVAAFREARLRHELVEDAVYENPLSVEKPSRSFTKNAAVKPKLEDSPKRAPPGAGAIASGRPISFSTAPKTATSSWCGPTPSYNKRVFCEAVRRVAAMQAQKAAEAAWNSNPPRNNAELDRLLTGAVIRITVHEGLNLIQAANEADLGEGASVSKRGHNRKTGDLQGGMGNEPMYAQVRKPKSRTDTQTTGRITNRSRARSASRTDTRK
modifications: AF488 NHS ester label
B2: Herpes simplex virus type 1 VP22 (HSV1-VP22) (natural protein)
chain: MTSRRSVKSGPREVPRDEYEDLYYTPSSGMASPDSPPDTSRRGALQTRSRQRGEVRFVQYDESDYALYGGSSSEDDEHPEVPRTRRPVSGAVLSGPGPARAPPPPAGSGGAGRTPTTAPRAPRTQRVATKAPAAPAAETTRGRKSAQPESAALPDAPASTAPTRSKTPAQGLARKLHFSTAPPNPDAPWTPRVAGFNKRVFCAAVGRLAAMHARMAAVQLWDMSRPRTDEDLNELLGITTIRVTVCEGKNLLQRANELVNPDVVQDVDAATATRGRSAASRPTERPRAPARSASRPRRPVE
modifications: AF488 NHS ester label

Columns and labels:
[1] = molecular target: cGAS-pMag (pMag fused to the C-terminus of full-length cGAS) (UniProt Q8N884); test: dcFCCS
[2] = molecular target: Cyclic GMP-AMP synthase (cGAS), full-length (amino acids 1-522) (UniProt Q8N884 1-522); test: dcFCCS

Molecule | fold increase of the proportion forming heterodimer under blue light [1] | Kd [2]
nMagHigh1-ORF9 (nMagHigh1 fused to the N-terminus of VZV-ORF9) | 5 fold | 
nMagHigh1-ORF52 (nMagHigh1 fused to the N-terminus of KSHV-ORF52) | 5 fold | 
nMagHigh1-VP22 (nMagHigh1 fused to the N-terminus of HSV1-VP22) | 5 fold | 
B1 |  | ~2 µM
B2 |  | ~2 µM
